Experiments:
[1] = molecular target: CD59 (target protein) (human) (UniProt P13987); experiment: phage ELISA, CD59 coated directly, anti-M13-HRP; helper phage control
[2] = molecular target: CD59 in membrane extract of lysed CD59-expressing red blood cells (UniProt P13987); experiment: phage ELISA, membrane extract of CD59(+) red cells coated, anti-M13-HRP; helper phage control

## M13KO7 helper phage
[1]
  OD490 (Ag+ phage+): 0.046 OD
[2]
  OD490 (Ag+ phage+, CD59(+)red cell): 0.046 OD
